Reference: US20120094899A1 (Takeda / Millennium, published 2012)
Non-standard residues stand in square brackets, D forms with d. No end group written: not given here. *: point of attachment. Acetyl(2-(piperazin-1-yl)) = O=C(CN1CCNCC1)*; PEG 20 kDa = methoxypolyethylene glycol 20k; 2Nal = N[C@@H](Cc1ccc2ccccc2c1)C(=O)O; Arg(Me) = CNC(=N)NCCC[C@H](N)C(=O)O; NMeY = CN[C@@H](Cc1ccc(O)cc1)C(=O)O; NMeR = CN[C@@H](CCCNC(=N)N)C(=O)O; Cha = N[C@@H](CC1CCCCC1)C(=O)O; NMeL = CN[C@@H](CC(C)C)C(=O)O; NMeA = CN[C@@H](C)C(=O)O; βAla = NCCC(=O)O

T1: Human FM3 (human, UniProt Q9HB89 1-426)
T1 construct: whole, on cells; Assayed as the membrane fraction of FM3-expressing CHO cells (1.2 mg/mL protein); also called NMUR1; FM3 receptor
T1 sequence (looked up): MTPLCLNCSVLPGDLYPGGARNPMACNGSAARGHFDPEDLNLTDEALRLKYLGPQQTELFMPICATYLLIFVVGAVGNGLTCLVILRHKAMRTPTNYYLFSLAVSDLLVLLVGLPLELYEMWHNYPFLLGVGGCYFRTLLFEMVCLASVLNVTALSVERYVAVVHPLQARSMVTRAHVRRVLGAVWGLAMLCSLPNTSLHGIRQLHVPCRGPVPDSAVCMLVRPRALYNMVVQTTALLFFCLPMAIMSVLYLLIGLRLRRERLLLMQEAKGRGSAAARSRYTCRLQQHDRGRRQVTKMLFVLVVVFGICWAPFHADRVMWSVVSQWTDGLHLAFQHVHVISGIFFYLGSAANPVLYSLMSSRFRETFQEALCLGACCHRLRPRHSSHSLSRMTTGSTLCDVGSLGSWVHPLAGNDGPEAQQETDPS

T2: Human FM3 (human), Q9HB89
T2 chain: T1 sequence (looked up)

B1: PEG20k-NpipAc0,Nal(2)2,NMeAla6-NMU-8 (Compound V) (peptide)
peptide: {mPEG 20 kDa-Acetyl(2-(piperazin-1-yl))}-Y[2Nal]LFR[NMeA]RN-NH2
notes: X stands for Nal(2); also called PEG20k-NpipAc-Nal(2)2,NMeAla6-NMU8
B2: NpipAc0,Trp2,Ala6-NMU-8 (Compound 20) (peptide)
peptide: {Acetyl(2-(piperazin-1-yl))}-YWLFRARN-NH2
SMILES: CC(C)C[C@H](NC(=O)[C@H](Cc1c[nH]c2ccccc12)NC(=O)[C@H](Cc1ccc(O)cc1)NC(=O)CN1CCNCC1)C(=O)N[C@@H](Cc1ccccc1)C(=O)N[C@@H](CCCNC(=N)N)C(=O)N[C@@H](C)C(=O)N[C@@H](CCCNC(=N)N)C(=O)N[C@@H](CC(N)=O)C(N)=O
notes: also called 2-(piperazin-1-yl)acetyl-[Trp2,Ala6]-NMU8
B3: NpipAc0,Phe1,Trp2,Ala6-NMU-8 (Compound 11) (peptide)
peptide: {Acetyl(2-(piperazin-1-yl))}-FWLFRARN-NH2
SMILES: CC(C)C[C@H](NC(=O)[C@H](Cc1c[nH]c2ccccc12)NC(=O)[C@H](Cc1ccccc1)NC(=O)CN1CCNCC1)C(=O)N[C@@H](Cc1ccccc1)C(=O)N[C@@H](CCCNC(=N)N)C(=O)N[C@@H](C)C(=O)N[C@@H](CCCNC(=N)N)C(=O)N[C@@H](CC(N)=O)C(N)=O
notes: also called 2-(piperazin-1-yl)acetyl-[Phe1,Trp2,Ala6]-NMU-8
B4: PEG20k-NpipAc0,Phe1,Trp2,Ala6-NMU-8 (Compound K) (peptide)
peptide: {PEG 20 kDa-Acetyl(2-(piperazin-1-yl))}-FWLFRARN-NH2
notes: also called PEG20k-NPipAc-Phe1, Trp2,Ala6-NMU-8
B5: β-Ala0,Arg(Me)7-NMU-8 (Compound 14) (peptide)
peptide: [βAla]YFLFRP[Arg(Me)]N-NH2
modifications: N-terminus assumed
SMILES: CNC(=N)NCCC[C@H](NC(=O)[C@@H]1CCCN1C(=O)[C@H](CCCNC(=N)N)NC(=O)[C@H](Cc1ccccc1)NC(=O)[C@H](CC(C)C)NC(=O)[C@H](Cc1ccccc1)NC(=O)[C@H](Cc1ccc(O)cc1)NC(=O)CCN)C(=O)N[C@@H](CC(N)=O)C(N)=O
B6: β-Ala0,Cha3-NMU-8 (Compound 6) (peptide)
peptide: [βAla]YF[Cha]FRPRN-NH2
modifications: N-terminus assumed
SMILES: N=C(N)NCCC[C@H](NC(=O)[C@@H]1CCCN1C(=O)[C@H](CCCNC(=N)N)NC(=O)[C@H](Cc1ccccc1)NC(=O)[C@H](CC1CCCCC1)NC(=O)[C@H](Cc1ccccc1)NC(=O)[C@H](Cc1ccc(O)cc1)NC(=O)CCN)C(=O)N[C@@H](CC(N)=O)C(N)=O
notes: X stands for Cha
B7: β-Ala0,Pro1-NMU-8 (Compound 8) (peptide)
peptide: [βAla]PFLFRPRN-NH2
modifications: N-terminus assumed
SMILES: CC(C)C[C@H](NC(=O)[C@H](Cc1ccccc1)NC(=O)[C@@H]1CCCN1C(=O)CCN)C(=O)N[C@@H](Cc1ccccc1)C(=O)N[C@@H](CCCNC(=N)N)C(=O)N1CCC[C@H]1C(=O)N[C@@H](CCCNC(=N)N)C(=O)N[C@@H](CC(N)=O)C(N)=O
B8: β-Ala0,Val3-NMU-8 (Compound 4) (peptide)
peptide: [βAla]YFVFRPRN-NH2
modifications: N-terminus assumed
SMILES: CC(C)[C@H](NC(=O)[C@H](Cc1ccccc1)NC(=O)[C@H](Cc1ccc(O)cc1)NC(=O)CCN)C(=O)N[C@@H](Cc1ccccc1)C(=O)N[C@@H](CCCNC(=N)N)C(=O)N1CCC[C@H]1C(=O)N[C@@H](CCCNC(=N)N)C(=O)N[C@@H](CC(N)=O)C(N)=O
B9: β-Ala0,Tyr2-NMU-8 (Compound 5) (peptide)
peptide: [βAla]YYLFRPRN-NH2
modifications: N-terminus assumed
SMILES: CC(C)C[C@H](NC(=O)[C@H](Cc1ccc(O)cc1)NC(=O)[C@H](Cc1ccc(O)cc1)NC(=O)CCN)C(=O)N[C@@H](Cc1ccccc1)C(=O)N[C@@H](CCCNC(=N)N)C(=O)N1CCC[C@H]1C(=O)N[C@@H](CCCNC(=N)N)C(=O)N[C@@H](CC(N)=O)C(N)=O
notes: also called β-Ala0,Try2-NMU-8
B10: NpipAc0,Nal(2)2,NMeAla6-NMU-8 (Compound 22) (peptide)
peptide: {Acetyl(2-(piperazin-1-yl))}-Y[2Nal]LFR[NMeA]RN-NH2
SMILES: CC(C)C[C@H](NC(=O)[C@H](Cc1ccc2ccccc2c1)NC(=O)[C@H](Cc1ccc(O)cc1)NC(=O)CN1CCNCC1)C(=O)N[C@@H](Cc1ccccc1)C(=O)N[C@@H](CCCNC(=N)N)C(=O)N(C)[C@@H](C)C(=O)N[C@@H](CCCNC(=N)N)C(=O)N[C@@H](CC(N)=O)C(N)=O
notes: X stands for Nal(2); also called 2-(piperazin-1-yl)acetyl-[Nal(2)2,NMeAla6]-NMU8
B11: β-Ala0,NMeLeu3,NMeArg7-NMU-8 (Compound 15) (peptide)
peptide: [βAla]YF[NMeL]FRP[NMeR]N-NH2
modifications: N-terminus assumed
SMILES: CC(C)C[C@@H](C(=O)N[C@@H](Cc1ccccc1)C(=O)N[C@@H](CCCNC(=N)N)C(=O)N1CCC[C@H]1C(=O)N(C)[C@@H](CCCNC(=N)N)C(=O)N[C@@H](CC(N)=O)C(N)=O)N(C)C(=O)[C@H](Cc1ccccc1)NC(=O)[C@H](Cc1ccc(O)cc1)NC(=O)CCN
B12: PEG30k-NH-β-Ala0,Cha3-NMU-8 (Compound F) (peptide)
peptide: {mPEG 30 kDa-βAla}-YF[Cha]FRPRN-NH2
notes: X stands for Cha; also called PEG-NH-β-Ala0,Cha3-NMU-8

How the values were obtained:
[1] = molecular target: T3, human TGR1 (human, UniProt Q9GZQ4 1-415); assay: displacement of 125I-NMU8 from human TGR1 CHO membrane fraction; IC50 relative to NMU-8;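 further: competitive binding on TGR1-expressing CHO cell membranes, with compounds tested as DMSO dilution series and incubated for 70 min at 25 °C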
T3 construct: whole, on cells; Assayed as the membrane fraction of TGR1-expressing CHO cells (1.1 mg/mL protein); also called NMUR2; TGR1 receptor
T3 sequence (Q9GZQ4 whole entry): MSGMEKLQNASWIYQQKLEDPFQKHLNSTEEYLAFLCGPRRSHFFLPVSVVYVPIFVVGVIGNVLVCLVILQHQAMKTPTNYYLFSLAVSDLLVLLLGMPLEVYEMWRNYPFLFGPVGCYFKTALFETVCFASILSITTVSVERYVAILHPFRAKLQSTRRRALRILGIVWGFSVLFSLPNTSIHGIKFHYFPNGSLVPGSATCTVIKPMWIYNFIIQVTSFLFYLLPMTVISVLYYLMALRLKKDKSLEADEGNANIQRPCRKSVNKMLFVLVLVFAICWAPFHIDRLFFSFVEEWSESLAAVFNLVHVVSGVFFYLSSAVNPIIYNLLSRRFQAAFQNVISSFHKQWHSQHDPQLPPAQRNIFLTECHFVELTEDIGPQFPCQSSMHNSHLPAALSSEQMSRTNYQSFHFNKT
Experimental: 15 mL of homogenized buffer (10 mM NaHCO₃ (pH 7.4), 5 mM EDTA, protease inhibitor=0.5 mM PMSF, 10 μg/mL Pepstatin A, 20 μg/mL Leupeptin, and 4 μg/mL E-64) was added to the obtained cell pellets, the cellular membrane was disrupted using a polytron homogenizer (Kinematica GmbH), centrifugation was conducted for 10 minutes at 1,000 g at 4° C., and the supernatant was collected. This process was further repeated twice, and ultracentrifugation was conducted for 60 minutes at 30,000 rpm at 4° C. Thereafter, 8 mL of homogenized buffer was added to the pellets and suspended homogeneously to prepare a membrane fraction. The protein concentration of the FM3-expressing CHO cellular membrane fraction was 1.2 mg/mL, and the protein concentration of the TGR1-expressing CHO cellular membrane fraction was 1.1 mg/mL.
Specifically, each of the NMU derivatives and PEG conjugates was dissolved in DMSO so as to prepare 2 μL of each dilution series of the NMU derivatives and PEG conjugates. […] The resulting product was thoroughly mixed, and then a reaction was carried out at 25° C. for 70 minutes.

[2] = molecular target: T1, Human FM3; assay: displacement of 125I-NMU8 from human FM3 CHO membrane fraction; IC50 relative to NMU-8;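 further: binding reaction run for 70 min at 25 °C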
[3] = molecular target: T2, Human FM3 (human), Q9HB89; assay: as above; settings: remark: other sources report otherwise

Binder | IC50 ratio [1] | IC50 ratio [2] | IC50 ratio (ratio to NMU-8 (=1)) [3]
B1 | 27 ratio to NMU-8 (=1) | 10000 ratio to NMU-8 (=1) | –
B2 | 1.9 ratio to NMU-8 (=1) | 900 ratio to NMU-8 (=1) | –
{mPEG 20 kDa-βAla}-[NMeY]F[NMeL]F[NMeR]PRN-NH2 [PEG20k-NH-β-Ala0,NMeTyr1,NMeLeu3,NMeArg5-NMU-8 (Compound P)] | 240 ratio to NMU-8 (=1) | 83 ratio to NMU-8 (=1) | –
B3 | 0.19 ratio to NMU-8 (=1) | – | 280
B4 | 34 ratio to NMU-8 (=1) | – | 11000
B5 | 3.6 ratio to NMU-8 (=1) | 6.3 ratio to NMU-8 (=1) | –
B6 | 9.9 ratio to NMU-8 (=1) | 0.55 ratio to NMU-8 (=1) | –
{PEG 20 kDa-βAla}-YWLFR[NMeA]RN-NH2 [PEG20k-NH-β-Ala0,Trp2,NMeAla6-NMU-8 (Compound Q)] | 47 ratio to NMU-8 (=1) | 1600 ratio to NMU-8 (=1) | –
{mPEG 30 kDa-βAla}-YFLF[NMeR]PRN-NH2 [PEG30k-NH-β-Ala0,NMeArg5-NMU-8 (Compound M)] | 29 ratio to NMU-8 (=1) | 9 ratio to NMU-8 (=1) | –
B7 | 3.8 ratio to NMU-8 (=1) | 0.59 ratio to NMU-8 (=1) | –
B8 | 0.37 ratio to NMU-8 (=1) | 0.43 ratio to NMU-8 (=1) | –
B9 | 0.17 ratio to NMU-8 (=1) | 0.44 ratio to NMU-8 (=1) | –
{mPEG 20 kDa-βAla}-YF[NMeL]FRP[NMeR]N-NH2 [PEG20k-NH-β-Ala0,NMeLeu3,NMeArg7-NMU-8 (Compound O)] | 170 ratio to NMU-8 (=1) | 75 ratio to NMU-8 (=1) | –
B10 | 1.7 ratio to NMU-8 (=1) | 99 ratio to NMU-8 (=1) | –
{mPEG 30 kDa-βAla}-YFLFRP[Arg(Me)]N-NH2 [PEG30k-NH-β-Ala0,Arg(Me)7-NMU-8 (Compound N)] | 63 ratio to NMU-8 (=1) | 290 ratio to NMU-8 (=1) | –
B11 | 19 ratio to NMU-8 (=1) | 8.6 ratio to NMU-8 (=1) | –
B12 | 11 ratio to NMU-8 (=1) | 1.3 ratio to NMU-8 (=1) | –
